Reference: the nanobody polyreactivity screen of Harvey et al. (2022)

Assay: yeast display, Sf9 membrane polyspecificity reagent, FACS + sequencing; frameworks hold sequencing errors
Procedure, shortened: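 After 36–48 hours of galactose induction, yeast (Saccharomyces cerevisiae BJ5465) displaying a synthetic nanobody library were stained at 4 °C for 1 hour with 10% biotinylated, detergent-solubilized Sf9 membrane reagent. Streptavidin microbeads enriched the stained cells before FACS sorting into low and high (top ~1%) gates on anti-HA and streptavidin fluorescence. Each clone's polyreactivity label reflects its gate of origin.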

Sequence | polyreactivity (PSR sort gate)
QVQIVESGGGLVQAGGSHRLSCAASGSTFVYNAMGWYRQAPGIQRELVAAITVIGGRTYYADSVKGRFTISRDNAKNTVYLQMNSLKPEDTSVYYCNGTWAYRGHGYWGQGTEVTVSS | low polyreactivity
QVQIVESGGGLVQAGGSHRLSCADSGRTFGVNTMGWYRQAPAKERQFVAAISSRSGSTYYADSVKGRFTISRDNAKNNVYLQMNSLKPEDTAVDYCAKGPLPRAGVKFDYWGHGTQVTVSS | low polyreactivity
QVQIVESGGGLVQAGGSIRLSCAASGSIFYDNDMGWYRQAPAKERELVAAISWSASDTYYADSVKGRFTISRDNAKNTVYLQMNSLKPEDTAVYYCNAEVYEWYVVYSALDYWGQGTQVTVSS | low polyreactivity
QVQIVESGGGLVQAGGSLRISCAATGSTFDSFAMGWYRQAPGKERELVDAITRRGTRTYYADSVKGRFTISRDNAKNTVYLQRNSLKPEDTAVYYCNAVTQCSKTPGYGFNYWGQGTQVTVSS | high polyreactivity
QVQIVESGGGLVQAGGSLRISCPASGRTFNYNAMGWYRQAPGKERELVAAITSGASTNYADSVKGRFTISRDNAKNTVFLQINRLKPEDTAVYYCAKATYPHEYDYWGQGTQVNVSS | low polyreactivity
QVQIVESGGGLVQAGGSLRLRCAASGRIFSWNAMGWSRQAPGKERELVPAITWRGTSTYYADSVKGRFTISRDIAKNTVYLQMISLKPEDTAVYFCNVGLYRDWYTFGLEYDYWGQGTQVSVSS | low polyreactivity
QVQIVESGGGLVQAGGSLRLSCAASGFTFGHYAMGWYRQAPGKERELVAAISYSGVRTYYADSVKGRFTISRDNAKNTVYLQMNSLKPEDTAVYYCNKYPAHYQTRRYDYWGHGTQVTVSS | high polyreactivity
QVQIVESGGGLVQAGGSLRLSCAASGFTFRAYAMGWYRQAPGKERELDAAISKSGGRTYYADSVKGRFTISRDNAKNTVYLQMNSLKPEDTAVYYCAKAYRRAFINNPDVYYYPDDYWGQGTQVTVSS | high polyreactivity
QVQIVESGGGLVQAGGSLRLSCAASGGIFAVNAMGWYRQAPGKERELVASITRTGGSTSYEDSVKGRFTISRDNAKNTVYLQMNSLKPEDTAVYYCAAGWQVVLSTNGMDYWGQGTQVTVSS | high polyreactivity
QVQIVESGGGLVQAGGSLRLSCAASGGTFPAYAMGWYRHAPGKERELVAAISDDDSTYYADSVKGRFTISRDNAKNTVYLQKNSLKPEDTAVYYCNVEYWYYPSVEYSWTAYDYWGQGTQVTVSS | low polyreactivity
QVQIVESGGGLVQAGGSLRLSCAASGIIFYYYAMGWYRQAPGKERELVAAITKSGGSTYYADSVKGRFTISRDNAKNTVYLQMNSLKPEDTAVYYCAAEYSYYPLVGLDYWGQGTQVTVSS | low polyreactivity
QVQIVESGGGLVQAGGSLRLSCAASGITFLWNVMGWYRQAPGKERELVATITSIGGITNYADSVKGRFTISRDNAKNSVYLQMNSLKTEDSAFYYCATQIVSGSRVDRNDYWGQGTQVTVSS | low polyreactivity
QVQIVESGGGLVQAGGSLRLSCAASGLTLGRNAMGWYRQAPGKERELVAAITQSGGSTYYADSVKGRFTISRDNAKNTVYLQMNSLKPEDTAVYYCAAEVVRQWHGIGYDYWGHGTQVTVSS | low polyreactivity
QVQIVESGGGLVQAGGSLRLSCAASGRIFDGNALGWYRQAPGKERELVAAISRIGGTYYADSVKGRFTISRDNAKNTVYLQMNRLKPEDTAVYYCAADPSSVGYHVEYDYWGQGTQVTVSS | low polyreactivity
QVQIVESGGGLVQAGGSLRLSCAASGRIFFQYALGWYRQAPGKERELVAAIRYSGGSTYYADSVKGRFTISRDNAKNTVYLQMNSLKPEDTAVYYCAARYTRRHYDYWGQGTQVTVSS | high polyreactivity
QVQIVESGGGLVQAGGSLRLSCAASGRIFGAYGMGWYRQAPGKERELVAAISNGGRTSYADSVKGRFTISRDNAKNTVYLQMNSLKPEDTAVYYCAAVYWQWYGAYDYWGQGTQVTVSS | high polyreactivity
QVQIVESGGGLVQAGGSLRLSCAASGRIFVPYVMGWYRQAPGKERELVASISDSDTSTYYADSVKGRFTISRDNAKNTVYLQMNSLKPEDSAVYYCAAGVLRRATELYYWGQGTQVTVSS | low polyreactivity
QVQIVESGGGLVQAGGSLRLSCAASGRIIGTYAMGWYRQAPGKERELVATISYSSGRTYYADSVKGRFTISRDNAKNTVYLQMNSLKPEVTAVYYCAAVGTGSSLRYDYWGQGTQVTVSS | high polyreactivity
QVQIVESGGGLVQAGGSLRLSCAASGRIIRDYDMGWYRQAPGKERELVAAITFRSGSTYYADSEKGRFTISRDNAKNTVYLLMNSLKPEDTAVYYCADANSILLFDSWGQGTQVTLSS | low polyreactivity
QVQIVESGGGLVQAGGSLRLSCAASGRILKYYAMGWYRPAPGKEREFVASIRYSGGSTYADSVKGRFTISRDNAKNTVYLQMNSLKPEDTAGYYCNAQLSWTKFAYRGMDYGGQGTQVTVSS | high polyreactivity
QVQIVESGGGLVQAGGSLRLSCAASGRTFAWYAMGWYRQAPGKERELVAAITWSGGSTYYADSVKGRFTISRDNAKNTVYLQMNSLKPEETAVYYCAARTVVGWYSRYCYWGQGTQVTVSS | low polyreactivity
QVQIVESGGGLVQAGGSLRLSCAASGRTFFPYAMGWYRQAPGKEREFVAAITKTDDSTYYADSVKGRFTISRDNAKNTVYLQMNSLKPEDTAVYYCAADRSISADYVVSVDYDYWGQGTQVTVSS | low polyreactivity

Sequence | polyreactivity (PSR sort gate)
QVQIVESGGGLVQAGGSLRLSCAASGRTFKGYAMAFYRQAPGKERELVAGISRGAGRTYYADSVKGRFTISRDNAKNTVYLQMNSLKPEDTAVYYCAAVPSYNSTSPFYYWGQGTQVTVSS | high polyreactivity
QVQIVESGGGLVQAGGSLRLSCAASGRTFNAYAMGWYRPAPGKERELVAAISGNGGSTYYADSVKGRFTISRDNAKNTVYLQMNSLKPEDTAVYYCYKVQRSLLGYNSWGQGTEVTVSS | high polyreactivity
QVQIVESGGGLVQAGGSLRLSCAASGRTFRGNVMGWSRQAPGKEREFVAAITRSGSNTYYADSVKGRFTISRDNAKNTVYLQMNSLKPEDTAVYYCAKSVLLGYKRHDSWGQGTQVTVSS | high polyreactivity
QVQIVESGGGLVQAGGSLRLSCAASGRTFWRYTMGWYRQAPGKERELVASISTGGGSTYYADSVKGRFTISRDNAKNTVYLQMNSLKPEDTAVYYCNVEYVSVSRVWRGNYWGQGTQVTVSS | low polyreactivity
QVQIVESGGGLVQAGGSLRLSCAASGSIFKIYEMGWYRLAPGKEREMVASMTCSGGSTYYADSVKGRFTISRDNAKNTVYLQRNSLKPEDTAGYYCAAAVLGSSKSEVDPDRPEYYYWGQGTQVTVSS | low polyreactivity
QVQIVESGGGLVQAGGSLRLSCAASGSIFLRNAMGWYRQAPGKERELVASITWNGASTSYADSVKGRFTISRDNAKNTVYLQMNSLKPEDTAVYYCAAVTVQDSNLNYGYWGQGTQVTVSS | low polyreactivity
QVQIVESGGGLVQAGGSLRLSCAASGSIFSRYTMGWYRQAPGKERELVARINSSGTSTYYADSVKGRFTISRDNEKNSVYFQMNSLKPEDTAVYYCDRTSRHVRYDYWGQGTQVTVSS | low polyreactivity
QVQIVESGGGLVQAGGSLRLSCAASGSIFSYNVMGWYRQAPGKERELVAAISWNDGSTYYADSVKGRFTISRDNAKNTVYLQMNSLKPEDTAVYYCAAEYGRRWHNELDYWGQGTQVTLSS | low polyreactivity
QVQIVESGGGLVQAGGSLRLSCAASGSNNGYYTMGWYRQAPRKERELVAAINYSGGRTYYADSVKGRFTISRDNAKNTVYFQMNSLKPEDTAVYYCARAYYYGSDIMDYWGQGTQVTVSS | high polyreactivity
QVQIVESGGGLVQAGGSLRLSCAASGSTFLTNTMGWYRQAPGKERELVAAITLRGGRTYYADSVKGRFTISRDNAKNTVYLQMNSLRPEDTAVYYCNARNYYYPSDRDYWGQGTQVTVSS | low polyreactivity
QVQIVESGGGLVQAGGSLRLSCAASGSTFTLNAMGWYRQAPGKERELVADISWSSGRTYYADSVKGRFTISRDNAKNTVYLQMNSLKPEDTAVYYCAARLPFEHVDYWGQGTQVTVSS | low polyreactivity
QVQIVESGGGLVQAGGSLRLSCAASGSTFVENAMGWYRPAPGKERELVAAISSSGDSTFYADSVKGRFTISRDNAKNNVYLQMNSLKPEDTAVYYCAADRRINYDGLDMDYWGQGTQVTVSS | low polyreactivity
QVQIVESGGGLVQAGGSLRLSCAASGSTFYSYAMGWYRPAPGKERELVAGISYIGGRTYYADSVKGRFTISRDNAKNTVYLQMNSLKAEDTAVYDCAADQYGTTYGYWGHGTQVTVSS | high polyreactivity
QVQIVESGGGLVQAGGSLRLSCAASGSTFYSYAMGWYRQAPGKERELVAAIDWSGDNTNYADSVKGRFTISRDNAKNTVYLQMKSLKPEDTAVYYCAAVYSYYRLYAYPAYYYWGQGTQVTVSS | low polyreactivity
QVQIVESGGGLVQAGGSLRLSCAASGSTLGVNAMGWYRQAPGKERELVAAISKSGGGTYYADSVKGRFTISRDIAKNTVYLQMNRLIPEDTAVYYCNAPVSRKYYSWGQGTQVTVSS | high polyreactivity
QVQIVESGGGLVQAGGSLRLSCAASGSTLYAYAMGWYRQAPGKERELVAAIRTGGSTYYADSVKGRFTISRDNAKNTVYLQMNSLKPEDTAVYYCADDHGYQYGYWGQATQVTVSS | low polyreactivity
QVQIVESGGGLVQAGGSLRLSCAASGSTSLVNAMGWYRQAPGKESELVAAITRGGNTYYADSVKGRFTISRDNAKNTVYLQMNSLKPEDTAVYYCAADFWRFYYEYDYWGQGTQVTVSS | low polyreactivity
QVQIVESGGGLVQAGGSLRLSCAASGYTFRFNAMGWYRQAPGKEREFVAAIDFGGAGTYYADSVKGRFTISRDNAKNTVYLQMNSLKPEDTAVYYCNARDGVTTEFDYWGQGTQVTVSS | low polyreactivity
QVQIVESGGGLVQAGGSLRLSCAASRRIFEYYTMGWYRQAPGKERELVARISSGGSTYYADTVKGRFTISRDNAKNSVYLQLNSLLPEDTAVYYCAAGRGYWWWYGYDYWGQGTEVTVSS | low polyreactivity
QVQIVESGGGLVQAGGSLRLSCDASGSIFYSNAIGWYRQAPGKERELVASIRGSGVSTYYADSVKGRFTISRDNAKNTVYLQMNSLKPEDTAVYYCAARYVRSYFGFYYWGQGTQVTVSS | high polyreactivity
QVQIVESGGGLVQAGGSLRLSFAASGSILYINAMGWYRQAPGKERELVAAISWSGDSTNYADSVKGRFTISRDNAKNTVYLQMNSLKPEDTAVYYCNADCDVVGVAHDYWGQGTQVTVSS | low polyreactivity
